Source: article PMC10878793

Tests used:
[1] = target: cytochrome P450 17A1 (Homo sapiens) (UniProt P05093); experiment: surface plasmon resonance; settings: cited from earlier work
[2] = target: human cytochrome b5 K24C, unlabeled (human) (UniProt P00167); experiment: SDS-PAGE with and without reducing agent; purified b5 variant run with or without β-mercaptoethanol (10%, v/v) or DTT; monomer at 17 kDa, dimer at 34 kDa; disulfide-linked dimer
[3] = target: human cytochrome b5 T70C, unlabeled (human) (UniProt P00167); experiment: as above
[4] = target: P450 17A1 peptide (putative b5 binding site of P450 17A1) (human); experiment: fluorescence polarisation; competition: nonlabeled WT b5 at various concentrations added to the complex of Alexa 488-b5 K77C (10 nM) and P450 17A1 peptide (100 μM)
[5] = target: P450 17A1 peptide (putative b5 binding site of P450 17A1) (human); experiment: fluorescence polarisation; competition: nonlabeled WT b5 at various concentrations added to the complex of Alexa 488-b5 T70C (10 nM) and P450 17A1 peptide (100 μM)
[6] = target: previously constructed Alexa 488-T70C-b5 (ref. 19; nonspecifically labelled) (human) (UniProt P00167); experiment: SDS-PAGE with and without reducing agent; purified b5 variant run with or without β-mercaptoethanol (10%, v/v) or DTT; monomer at 17 kDa, dimer at 34 kDa; disulfide-linked dimer
[7] = target: Alexa 488-labeled human cytochrome b5 K77C (human) (UniProt P00167); experiment: fluorescence polarisation; P450 17A1 protein or P450 17A1 peptide added to Alexa 488-labeled b5 variant (10 nM) in 1 mM potassium phosphate buffer, pH 7.4, 384-well plate, 50 μl; anisotropy fitted with a quadratic equation
[8] = target: Alexa 488-labeled human cytochrome b5 T70C (singly labelled at Cys-70, this paper) (human) (UniProt P00167); experiment: as above

Question: With cytochrome b5 (from UniProt P00167) as the molecule, how does the Kd [1] read?
Answer: The Kd was 440 nM.

Question: Which stoichiometry N [2] does the source give for “human cytochrome b5 K24C, unlabeled (from UniProt P00167 1-134) (natural protein)” here?
Answer: The stoichiometry N was 2.

Question: With “human cytochrome b5 T70C, unlabeled (from UniProt P00167 1-134) (natural protein)” as the molecule, how does the stoichiometry N [3] read?
Answer: Its stoichiometry N is 2.

Question: For “human cytochrome b5, WT, nonlabeled (from UniProt P00167 1-134) (natural protein)”, which IC50 [4] is on record?
Answer: The IC50 was 223 nM.

Question: What about the IC50 [5] of the same molecule?
Answer: Its IC50 is 129 nM.

Question: With “previously constructed Alexa 488-T70C-b5 (ref. 19; nonspecifically labelled) (from UniProt P00167 1-134) (natural protein)” as the molecule, how does the stoichiometry N [6] read?
Answer: Its stoichiometry N is 2.

B1: human cytochrome P450 17A1 (steroid 17α-hydroxylase/17,20-lyase) (enzyme)
chain: MWELVALLLLTLAYLFWPKRRCPGAKYPKSLLSLPLVGSLPFLPRHGHMHNNFFKLQKKYGPIYSVRMGTKTTVIVGHHQLAKEVLIKKGKDFSGRPQMATLDIASNNRKGIAFADSGAHWQLHRRLAMATFALFKDGDQKLEKIICQEISTLCDMLATHNGQSIDISFPVFVAVTNVISLICFNTSYKNGDPELNVIQNYNEGIIDNLSKDSLVDLVPWLKIFPNKTLEKLKSHVKIRNDLLNKILENYKEKFRSDSITNMLDTLMQAKMNSDNGNAGPDQDSELLSDNHILTTIGDIFGAGVETTTSVVKWTLAFLLHNPQVKKKLYEEIDQNVGFSRTPTISDRNRLLLLEATIREVLRLRPVAPMLIPHKANVDSSIGEFAVDKGTEVIINLWALHHNEKEWHQPDQFMPERFLNPAGTQLISPSVSYLPFGAGPRSCIGEILARQELFLIMAWLLQRFDLEVPDDGQLPSLEGIPKVVFLIDSFKVKIKVRQAWREAQAEGST
Question: Which Kd [7] does the source give for B1 here?
Answer: The Kd was 125 nM.

Question: What about the Kd [8] of the same molecule?
Answer: The Kd was 379 nM.

B2: P450 17A1 peptide (putative b5 binding site of P450 17A1) (peptide)
peptide: RNRLLLLEATIR
Question: Which results are given for B2?
Answer: Kd [7]: 52000 nM; Kd [8]: 113000 nM
